The values that follow come from US20240218057A1 (ROCKEFELLER UNIVERSITY, published 2024).

Assay [1] deals with T1, SARS-COV-2 RBD (SARS-COV-2, UniProt P0DTC2 319-539).
T1 construct: also called WT RBD
In words: ELISA, RBD coated.

The target in assay [2] is T2, SARS-COV-2 RBD (SARS-COV-2, UniProt P0DTC2 319-539).
T2 construct: also called WT RBD
In words: ELISA, RBD coated on plate. For orientation: An ELISA detects its analyte on a solid surface through an enzyme-linked reagent.

Where a chain is given by its changes, count along the chain named.

B1: C1041 (antibody, V domains shown)
VH: QVQLVQSGAEVKKPGASVKVSCKASGYTFSDHYIYWVRQAPGQGLEWMGIINPSAGSTSYAQKFQGRVTMTRDTSTSTVYMELSSLRSEDTAVYYCARDIVFVPATMAMDVWGLGTTVTVSS
VL: EIVLTQSPATLSLSPGERATLSCRASQSVSRYLAWYQQKPGQAPRLLIYDASNRATGIPARFSGSGSGTDFTLTISSLEPEDFAVYYCQQRSNWLFTFGPGTKVDIK
notes: IgG; V domains only
As to B1, the EC50 (commonly the concentration giving half of the maximal effect) with SARS-COV-2 RBD [1] worked out at 3.65 ng/mL.

B2: C1042 (antibody, V domains shown)
VH: B1 VH with A55G, R87K, A97S, L114Q
VL: B1 VL
notes: IgG; V domains only
For B2, a half-maximal response with SARS-COV-2 RBD [1] (EC50) required 4.55 ng/mL.

B3: C990 (antibody, V domains shown)
VH: EVQLVESGGGLVRPGGSLRLSCAASGFTVGSNFMSWVRQAPGKGLEWVSLIYSGGGTHYAESVKGRFTISRDKSKNTLYLQMNSLRAEDTAVYYCANQGYYYYMDVWGKGTTVTVS
VL: QSALTQPASVSGSPGQSITISCTGTSSDVGAYNYVSWHQHHPGKAPKLIIYDVSNRPSGVSNRFSGSKSGNTASLTISGLQAEDEADYYCTSYTNTTTPWVFGGGTKLTVL
B3 registered an EC50 with SARS-COV-2 RBD [2] of 1.85 ng/mL.

B4: C983 (antibody, V domains shown)
VH: QVQLVESGGGVVRPGRSLRLSCAASGFTFSKYGMHWVRQAPGKGLECVASIAYDGSDDSYADSVKGRFIISRDNSKNTLYLQMNSLRAADTAVYYCAKVLGSYCSASSCHGQRPDYWGQGTLVTVSS
VL: DIQMTQSPSSLSAYVGDRVTITCQASQDISNHLNWYQQKPGKAPNLLIYDASNLETGVPSRFSGSGSGTDFSFTISSLQPEDIATYYCQQYDNVPPWTFGQGTKVEIK
Take B4: the 50% effective concentration (EC50) with SARS-COV-2 RBD [2] was determined as 2.11 ng/mL.

B5: C995 (antibody, V domains shown)
VH: EVQLVESGGGLIQPGRSLRLSCTASGFSVGDYAMSWFRQAPGKGLEWVGFLRNQHYGGTAEYAASVKGRFSISTDASKNIVYLQMDSLKTEDTAVYYCARNDRYIVIVPAEMLYWGQGTLVTVSS
VL: EIVMTQSPATLSVSPGERATLSCRATESVYSNLAWYQQKPGQAPRLLMYDASTRAPGIPARFSGSGSGTEFTLTISSLQSEDFATYYCQQYSNWPPITFGQGTRLEIK
The molecule B5 returned an EC50 with SARS-COV-2 RBD [2] of 3.79 ng/mL.

B6: C987 (antibody, V domains shown)
VH: QVQLQESGPGLVKPSETLSLTCNVSGDIINKYYWSWIRQSPGKGLEWIGYIYYSGTTYYNPSLKSRVTMSVGTSKQQFSLRLTSVTAADTAVYYCARMLSTEWSFNWFDPWGPGTLVTVSS
VL: SYELTQPPSVSVSPGQAASITCSGDKLGDKFACWYQQKPGQSPVLVIYQNDKRPTGIPERFSGSNSGNTATLTISGTQAMDEADYFCQAWDSTSASVFGTGTKVTVL
In the assay with SARS-COV-2 RBD [2], B6 showed a concentration giving a half-maximal response (EC50) of 3.11 ng/mL.

B7: C994 (antibody, V domains shown)
VH: QVQLQESGPGLVKPSGTLSLTCAVSGVSISNTNWWNWVRQPPGKGLEWIGEIYHTGSARYNPSLRSRVTISVDKSKNQFSLRLNSATAADTAIYYCARAQTPEFGELLYWGQGALVTVSS
VL: DIQMTQSPSSLSASVGDRVTITCRASQSITDHLNWYQQKPGKAPKLLIYAASSLQTGVPSRFSGSGSETDFTLTISTLQPEDFATYYCQQSYGPPTYSFGQGTKLEIK
In turn, B7 gave an EC50 with SARS-COV-2 RBD [2] of 2.09 ng/mL.

B8: C993 (antibody, V domains shown)
VH: EVQLLESGGGLVQPGGSLRLSCAASGFPFSIYAMSWVRQAPGKGLEWVSGMRGTTGTTYYADSVKGRFAISRDNSKNMLHLQMNSLRAEDTAVYYCAKSDHGDYVIGAFDIWGQGTMVTVSS
VL: QSALTQPPSASGSPGQSVTISCTGTSGDVGGYNYVSWYQQHPGKAPKLMIYEVSKRPSGVPDRFSGSKSGNTASLTVSGLQAEDEADYYCNSYAGSNNWVFGGGTKLTVL
B8: the 50% effective concentration (EC50) with SARS-COV-2 RBD [2] was determined as 2.29 ng/mL.

B9: C984 (antibody, V domains shown)
VH: QVQLVQSGTEVKKPGDSVQVSCKTSGYSFTGYYIHWVRQAPGQGLEWMGRINPNSGGTNYAQKFQGRVIMTRDTSITTAFMELTRLRYDDTAVYFCAREPIEGVIGGMIVNYYYMDVWGRGTTVTVSS
VL: QSALTQPASVSGSPGQSITISCTGTSSDVGGYYYVSWYQQHPGKAPKLMIYDVSSRPSGVSNRFSGSKSGNTASLTISGLQAEDEADYYCSSYTSSNTLVVFGGGTKLTVL
As to B9, the EC50 with SARS-COV-2 RBD [2] was found to be 2.76 ng/mL.

B10: C985 (antibody, V domains shown)
VH: QVQLVQSGAEVKKPGASVKVSCKASGYIFTGYYMHWVRQAPGQGLEWMGRINPNSGGSRYAEKFQGRVTMTRDTSIITAFMELRGLKSDDTAVYYCAREPIEAVPAGIIVNYYYMDVWGNGTTVTVSS
VL: B9 VL with Y33N, S54T, N62D, N71T, Y93F, S96A, N97F
Molecule B10 yielded an EC50 with SARS-COV-2 RBD [2] of 3.67 ng/mL.

B11: C1034 (antibody, V domains shown)
VH: QLQLQESGPGLVKPSETLSLTCTVSGGSVSSNNHYWGWIRQPPGKGLEWIGSISSSGSTHHNPSLRSRVTISVDTSKNHFSLKLNSVTATDTAVYYCARVDSSGWYTGDVFDVWGQGTMVTVSS
VL: DIQMTQSPSSLSASVGDRVTITCRASQTINNYLNWYQQKPGKPPKLLIYAAFSLHSGVPSRFSGSRSGTDFTLTISSLQPEDFATYYCQHSYSTMCSFGQGTKLEIK
notes: IgG; V domains only
As for B11, the 50% effective concentration (EC50) with SARS-COV-2 RBD [1] turned out to be 2.77 ng/mL.

B12: C986 (antibody, V domains shown)
VH: EVQLVQSGAEVKKPGETLKISCKGSGDSFSNYWIGWVRQSPGKGLEWMAIVYPGDSDARYSPSFQGQVTISADKSVTTAYLKWSSLKASDTAIYYCVRGLPVDWYFDLWGRGTLVTVSS
VL: QSVLTQPPSVSGAPEQRVTISCTGSSSNIGAGHDVHWYQQLPGTAPKLLIYNNNNRPSGVPDRFSGSKSGASASLAISGLQAEDEAEYYCQSYDKSLSVLYVLGTGTKVTV
Regarding B12, in the assay with SARS-COV-2 RBD [2], the response was half-maximal at 3.36 ng/mL (EC50).

B13: C992 (antibody, V domains shown)
VH: QVQLQESGPGLVKPSQTLSLTCTVSGGSISNGGYFWTWIRQHPVKGLEWIGYIYYSGSPHYNPSLKSRLSISLDTFKNQFSLNLSSVTAADTAVYYCARGDTFGRGYYFDFWGQGTLVTVSS
VL: SYELTQPPSVSVAPGQTARITCGGNNIGTNSMHWYQQKPGQAPVLVVFDDSDRPSGIPERFSGSNSGNTATLTISRVEAGDEADYHCQVWDRSSDRPWVFGGGTKLTVL
Turning to B13, the half-maximal effective concentration (EC50) in the assay with SARS-COV-2 RBD [2] was 3.24 ng/mL.

B14: C1033 (antibody, V domains shown)
VH: QVQLVQSGAEVKKPGSSVKVSCKASGGTFSRNVISWVRQAPGQGLEWMGGIIPMFGTANYAQKFQGRVTISADESTSTAYMELSSLRSEDTAVYYCAREDFILESAPIRENSYYYYGMDVWGQGTTVTVSS
VL: EIVLTQSPGTLSLSPGERATLSCRASQSVSSNYLAWYQQKPGQAPRLLIYDASSRATGIPDRFSGSGSGTDFTLTIRRLEPEDFAVYYCQQYGGSPRTFGQGTKVEIK
notes: IgG; V domains only
Molecule B14 gave an EC50 in the assay with SARS-COV-2 RBD [1] of 3.63 ng/mL.

B15: C1035 (antibody, V domains shown)
VH: EVQLVESGGGLIQPGGSLRLSCAASGLTVSRNYMNWVRQAPGKGLEWVSVMYSGGSTFYADSVKGRFTISRDNSKNTLYLQMNSLRAEDTAVYYCARESYGMDVWGQGTTVTVSS
VL: B14 VL with V29F, N32T, D51G, R77S, G93V, G94T, R97W
notes: IgG; V domains only
In the assay with SARS-COV-2 RBD [1], B15 gave a half-maximal effective concentration (EC50) of 2.05 ng/mL.

B16: C1036 (antibody, V domains shown)
VH: B15 VH with T28I, A40V, S53A, N73D, A87P
VL: B14 VL with V29I, N32T, D51G, R77S, G93V, G94T, R97W
notes: IgG; V domains only
In turn, B16 gave an EC50 with SARS-COV-2 RBD [1] of 1.76 ng/mL.

B17: C1044 (antibody, V domains shown)
VH: QVQLQESGPGLVKPSQTLSLTCTVSGGSISSGNYYLTWIRQPAGKGLEWIGHIYTSGSTNYNPSLKSRVTISVDTSMNQFSLKLSSVTAADTAVYYCARDIPPTWYFDLWGRGTLVTVSS
VL: SYELTQPPSVSVAPGKTARITCGGNNIGSKNVHWYQQKPGQAPVLVVYDDSDRPSGIPERFSGSNSGNTATLTISRVEAGDEAGYYCQVWDSTSDHLFWVFGGGTKLTVL
notes: IgG; V domains only
Turning to B17, a half-maximal effect with SARS-COV-2 RBD [1] (EC50) was put at 3.22 ng/mL.

B18: C1045 (antibody, V domains shown)
VH: B17 VH with G27D, L36W, T37S, T59P, N62K, V73L, M77K, S85T, V94M, P103S
VL: B17 VL with T21P, N25T, N26D, V46A, N68S, G84D, T93S, S94G, H96R, F98S
notes: IgG; V domains only
As for B18, the EC50 in the assay with SARS-COV-2 RBD [1] was found to be 2.57 ng/mL.

B19: C1038 (antibody, V domains shown)
VH: QVQLVQSGAEVKKPGASVKVSCKASGYTFTSYYMHWVRQAPGQGLEWMGIINPSGGSTRYAQKFQGRVTMTRDTSTSTVYMELSSLRSEDTAVYYCAREGVGGTSYFDYWGQGTLVTVSS
VL: SYELTQPPSVSVAPGKTARITCGGNNIGSKSVHWYQQKPGQAPVLVVYDDSDRPSGIPERFSGSNSGNTATLTISRVEAGDEADYYCQVWDSSSDPYVFGTGTKVTVL
notes: IgG; V domains only
Turning to B19, a half-maximal effect with SARS-COV-2 RBD [1] (EC50) was put at 2.46 ng/mL.

B20: C1039 (antibody, V domains shown)
VH: QVQLVQSGAEVKKPGASVKVSCKASGYTFTSHYMHWVRQAPGQGLEWMGIINPRTRYAQMFQGRVSMNRDTSTSTVYMELSSLTSEDTAVYYCAREGLGATAYFDYWGQGTLVTVSS
VL: B19 VL with R19G, N25S, N26D, T106S
notes: IgG; V domains only
In turn, B20 had a concentration for a half-maximal effect (EC50) with SARS-COV-2 RBD [1] of 2.61 ng/mL.

B21: C1032 (antibody, V domains shown)
VH: EVQLVESGGSLVKPGGSLRLSCVASGLTFNHAWMSWVRQAPGKGLEWVGRIKSKIDGGTTDYAAPVKGRFTISRDDSKSTQYLQMNSLKTEDTAVYYCTTDCFWRLGGTTCYEHDAFDVWGQGTMVTVS
VL: DIQMTQSPSSLSASVGDRVTITCRASQAIATFLNWYQQKPGKAPKLLIYAASSLQSGVPSRFSGSGSGTDFTLTISSLQPEDFATYYCQQSYNSLHFGGGTKVEIK
notes: IgG; V domains only
B21: the EC50 with SARS-COV-2 RBD [1] is 2.89 ng/mL.

B22: C950 (antibody, V domains shown)
VH: QVQLVESGGGLVKPGGSLRLSCAASGFTFSDYCVTWIRQAPGKGLEWLSYSNTNDSSRSYADSVKGRFTISRDNAKNSLYLQMDSLRAEDTAVYYCARRGDGNVPLFHYYYMDVWGKGTTVTVSS
VL: QSVLTQPPSASGTAGQRVTISCSGGSSNIGSNTVHWYQQLPGTAPKLLIYSNYKRPSGVPDRFSGSKSGASASLAISGLQSEDEAEYYCAAWDDSANGPIFGGGTKLTVL
notes: IgG; V domains only
B22 displayed an EC50 with SARS-COV-2 RBD [1] of 2.15 ng/mL.

B23: C838 (antibody, V domains shown)
VH: EVQLVESGGGLVQPGKSLRLSCTASGFTFEDYAMHWVRQAPGKGLEWVSGINWKSGSRGYADSAKGRFTISGNTAKNTLHLQMNSLRAEDTAFYYCAKAGVRNIAAAGPDLNFDFWGQGTLVTVSS
VL: EIVLTQSPATLSLSPGERATLSCRASQSVGTYLAWYQHKLGQAPRLLIYDATKRATGIPARFSGSGSGTDFTLTISSLEPEDFAIYYCQQRITFGQGTRLEIK
notes: IgG; V domains only
With B23, the concentration for a half-maximal effect (EC50) with SARS-COV-2 RBD [1] was 3.03 ng/mL.
